From publication PMC6651687 come the findings set out here.

This data set concerns the target T1, TTHA0973 (PaaR, TetR family) (Thermus thermophilus HB8) (UniProt Q5SJN5).
T1 sequence: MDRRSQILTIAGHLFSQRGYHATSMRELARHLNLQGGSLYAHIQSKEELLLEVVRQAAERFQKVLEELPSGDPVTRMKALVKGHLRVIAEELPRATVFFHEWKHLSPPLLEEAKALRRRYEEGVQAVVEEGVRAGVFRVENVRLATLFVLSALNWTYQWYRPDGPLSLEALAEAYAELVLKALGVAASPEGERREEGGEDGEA
The experiment in a line: BLI. To be noted: BLI with 11, 33, 100, 300 nM TTHA0973; EMSA 0-100 nM; buffer, salt, pH, temperature not given (cited protocol). (A gel shift assay detects complexes by their altered migration in electrophoresis.)

As usually defined, the Kd is a measure of binding affinity in units of concentration. For “CTAGGAATTCGTGCAGAGGTGAATACCTAGCGTTACTTTTACCATCCCTCCAGAAGCTTGGACA (double strand) [ST2_0973_0647bp]”, the Kd was found to be 99.5 nM.
